Measurements: article PMC6054393, “Light induces oxidative damage and protein stability in the fungal photoreceptor Vivid” (PLoS ONE, 2018)

Key:
[1] = target: Vivid (VVD) truncated at the N-terminus by 36 residues, with an N-terminal 6xHis tag (Neurospora crassa) (UniProt Q9C3Y6)
[2] = target: the molecule itself; assay: SDS-PAGE and Western blot of the aggregated pellet; purified VVD36 given a 5-min blue-light pulse, kept 24 h at 25°C in standard buffer (10% glycerol, 50 mM HEPES, 150 mM NaCl, 20 mM imidazole, pH 8), centrifuged; pellet run on SDS-PAGE and blotted against the 6xHis tag; with DTT present oligomer formation was limited

Sequence of catalase from Aspergillus niger (P55303 whole entry): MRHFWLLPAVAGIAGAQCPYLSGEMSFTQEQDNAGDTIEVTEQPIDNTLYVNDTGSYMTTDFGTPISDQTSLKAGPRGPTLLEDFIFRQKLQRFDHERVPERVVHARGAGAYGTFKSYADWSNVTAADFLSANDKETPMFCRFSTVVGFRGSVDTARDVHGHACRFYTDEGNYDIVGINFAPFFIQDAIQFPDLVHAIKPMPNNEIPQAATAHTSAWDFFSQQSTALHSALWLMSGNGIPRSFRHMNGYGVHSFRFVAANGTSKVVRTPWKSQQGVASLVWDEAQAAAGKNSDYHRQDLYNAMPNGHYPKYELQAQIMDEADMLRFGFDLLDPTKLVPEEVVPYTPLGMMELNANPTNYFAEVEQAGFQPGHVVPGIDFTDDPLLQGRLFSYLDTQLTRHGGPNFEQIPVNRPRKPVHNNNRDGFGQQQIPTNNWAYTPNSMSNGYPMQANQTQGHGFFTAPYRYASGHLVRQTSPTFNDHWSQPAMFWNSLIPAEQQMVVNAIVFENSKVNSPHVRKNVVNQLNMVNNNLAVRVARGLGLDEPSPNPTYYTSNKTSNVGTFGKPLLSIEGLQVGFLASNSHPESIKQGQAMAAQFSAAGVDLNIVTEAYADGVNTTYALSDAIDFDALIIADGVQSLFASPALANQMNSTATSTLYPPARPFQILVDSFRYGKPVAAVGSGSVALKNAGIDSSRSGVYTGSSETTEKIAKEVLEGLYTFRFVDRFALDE

Molecule | photoadduct mean lifetime of VVD with A. niger catalase at 2.34 uM (optical absorbance) [1] | binding result [2]
catalase from Aspergillus niger (from UniProt P55303 1-730) (enzyme) | 1100 s | –
Vivid (VVD) truncated at the N-terminus by 36 residues, with an N-terminal 6xHis tag (domain or fragment, Neurospora crassa, UniProt Q9C3Y6 37-186, looked up, Vivid (VVD), LOV photoreceptor of Neurospora crassa, wild type, first 36 amino acids deleted (VVD36); The plasmid came from B. R. Crane; The sample carries some self-oxidative damage (oxidised D82, Y87, F92, F159, N161 found in the aggregated pellet); also called VVD36; dark-VVD; not shown: His6, N-terminal, kept) HTLYAPGGYDIMGYLIQIMNRPNPQVELGPVDTSCALILCDLKQKDTPIVYASEAFLYMTGYSNAEVLGRNCRFLQSPDGMVKPKSTRKYVDSNTINTMRKAIDRNAEVQVEVVNFKKNGQRFVNFLTMIPVRDETGEYRYSMGFQCETE | – | binds
